To fix the notation:
B1: BD55-5268 (antibody, V domains shown)
VH: QVQLQQRGAGLLRPSETLSLTCDVSGGSFSGYYWNWVRQPPGKGLEWIGDIDLAGDNYNPSLKSRVTMSIDASKNQFSLRLSSVTAADTAVYFCVRAPNLGWFGPKQGAFDLWGQGTVVIVSS
VL: not shown
B2: BD55-5250 (antibody, V domains shown)
VH: QVQLVQSGAEVKKPGASVKVSCKASGYTFTSNAIHWVRQAPGQRLEWMGWIMADNGYTKYSENFQGRVTITRDTSASTVYMEVSSLRSGDTAVYYCAREGSMWYSTYFDHWGQGTLVTVSS
VL: DIQMTQSPSSLSASVGDRVTITCRASQSISSYLTWYQQKSGTAPKLLIYAASSLQSGVPSRFSGSGSGTDFTLTISSLQPEDFATYYCQQSYTDPFTFGPGTKVDFK
B3: BD55-5238 (antibody, V domains shown)
VH: QEQLVESGGGVVQPGRSLRLSCAASGLTFSSYAMHWVRQAPGKGLEWVAVIWYNGLKKYYADSVKGRFTISRDNYKNTAYLQMSSLRAEDTAVYYCAREGGGDILTGNEFEFWGQGTLVTVSS
VL: QSVLTQPPSVSGAPGQTVTISCTGGSSNTGAGYDVHWYQQLPGTAPKLLIFANKNRPSGVPDRFSGSKSGTSASLSITGLQAEDEGDYYCQSYDSSLSGWVFGGGTKVTVL
B4: BD55-5226 (antibody, V domains shown)
VH: EVQLVESGGGLVKPGGSLRLSCAASGFTFSSYSMNWVRQAPGKGLEWVSSISMTSSYRHYADSVRGRFTISRDNANNSLFLQMNSLRAEDTAVYFCARDSNLRTGDANDYWGQGTLVTVSS
VL: not shown
B5: BD55-5263 (antibody, V domains shown)
VH: QVQLVQSGAEVKKPGASVKVSCKGSGYIFTNYGVSWVRQAPGQGLECMGWISAYNGNTDYTQKFQGRVTMTTDTSTSTAYMELRSLTSDDTAVYYCARAAHNWGPEDAFDIWGQGSMVTVSS
VL: not shown
B6: BD55-5223 (antibody, V domains shown)
VH: EVQLLESGGGWVQPGGSLRLSCAASGFTFSSYAMSWVRQAPGKGLEWVSAISNTGGSTYYADSVKGRFTVSRDDSKNTLYLQMNSLRAEDTAVYYCAKNWDSIGYTSGWQHLDWFDPWGQGTLVTVSS
VL: DIQMTQSPSSLSASVGDRVTITCRASQSINTYLNWYQQKPGKAPKLLIYVASSLQSGVPSRFSGSGSGTDFTLTISSLQPEDFATYYCQQSYSSPSITFGQGTRLEIK
B7: BD55-5236 (antibody, V domains shown)
VH: QVQLVQSGAEVKKPGSSVKVSCKASGGTFTSQAISWVRQAPGQGLEWMGRIITVLGTTTYAQKFQGRLRITADRSTNTAYMDLTGLTSDDTAVYFCARDLDGYSGYDFGSSERRDSFYFDYWGQGTLVNVPS
VL: SSELTQDPPVSVALGQTVRITCQGDSLRTYYASWFQQKPGQAPLLVVYGKNYRPSGIPARFSGSFSGNTASLTITGAQAEDEADYYCNSRDSNNDHHVIFGGGTKLTVL
B8: BD55-5219 (antibody, V domains shown)
VH: QVQLVQSGSELKRLGASVTLSCKASGYTFTNYAINWVRQAPGHGLQWMGWINPDTGTPTYAQGFAGRFVFSLDSSVSTSYLQIRSLKADDTAVYYCARDANQWPRNQWFGPWGQGTLVTVSS
VL: DIVLTQSPDSLAVSLGERATINCKSSHSVFYSSSNQNDLAWYQQKPGQPPKLLIYWASIRESGVPDRFSGSGSGTDFTLTISSLQAEDVAVYYCQQHYSTPLTFGGGTKVEIK
B9: BD55-5242 (antibody, V domains shown)
VH: QVQLVQSGAEVKKPGASVKVSCKAFGYTFNSNYIHWVRQAPGQGLEWMGVIDPSGGATSYAQKFQGRVTMTRDTSTNTVYMELSSLRSEDTAVYYCARDLGDDVSRGYSGYDFLDLYGMDVWGQGTTVTVS
VL: not shown
B10: BD55-5215 (antibody, V domains shown)
VH: EVQLVESGGGLGQPGGSLRLSCAASGFTFSRYGMGWVRQAPGKGLEWVSVISGSGGATYYADSVKGRFTISRDNSKNTLFLQMNSLRVEDTAVYYCAKDGGQLQLVEIFTFDPWGRGTLVTVSS
VL: DIQMTQSPSSLSASVGDRVTITCRASQGIRNSLAWYQQKPGKAPKLLLYAASRLESGVPSRFSGSGSGTDYTLTISSLQPEDFATYYCQQYYSAWTFGQGTKVEIK
B11: BD55-5228 (antibody, V domains shown)
VH: QVHLVQSGSELKKPGASVKVSCKSSGHTFTIFAINWVRQAPGQGLEWMGWINTNTGNPTYAQGFTGRFVFSLDTSVNTAYLQISSLQPEDTAVYYCVGSNWGDYYFDPWGQGTLVTVSS
VL: EIVMTQSPATLSVSPGERATLSCRASYSLSSNLAWYQQKPGQAPRLLIYGASIRATGFPARFSGNGSGTEFTLTISSLQSEDFAVYYCQQYTSWPLTFGQGTKVEIK
B12: BD55-5239 (antibody, V domains shown)
VH: QVQLQESGPGLVRPSQTLSLTCSVSGGSISSGTYNWAWIRQPPGKDLEWIGHIYHSGSTYYNPSLRSRVNMSVDTSKNQFSLKLSSVTAADTAVYYCARERGPIAEFDFWGQGILVTVSS
VL: DIQMTQSPSSVSASIGDGVTITCRASQGISSWLAWYQQRPGKAPKLLISAAFTLQSGVPSRFSARGSGTDFTLIISNLQPEDFATYYCQQANSFPPTFGQGTKLEIK
B13: BD55-5256 (antibody, V domains shown)
VH: QVQLVQSGTEVKKPGSSVKVSCKASGGPFSGYVINWVRQAPGQGLEWMGGIIPVFETVKYAQKFQGRVTITAGESASTAYMELNSLRSEDTAVYYCAKSKYHSGYDVLTGRADFSLPFDYWGQGTLVTVSS
VL: DIQMTQSPSSLSASVGDRVIITCQASQDITNSLSWYQQKPGKAPKLLIYGAFNLETGVPSRFSGSGSGTDFTFAISSLQPEDIATYFCQQYADLPYTFGQGTKLDIK
B14: BD55-5233 (antibody, V domains shown)
VH: EVQLLESGGGLVQPGGSLRLSCAASGFTFSRSSMGWVRQAPGKGLEWVSTISEDGYTPYYADSVKGRFTISRDNSENRLFLQMNGLRAEDTALYYCAKDVDFDKWRQTCFDSWGQGALVTVSS
VL: QSVLTQPPSVSGAPGQRVTISCTGSNSNIGAGYDVHWYQQLPGTAPKLLIYGNNNRPSGVPDRFSGSKSGTSASLAITGLQAEDEADYYCQSYDSSLNVLYVFGTGTRVTVL
B15: BD55-5245 (antibody, V domains shown)
VH: QVQLVQSGAEVKKPGSSVKVSCKASGGSLSSDGINWVRQAPGQGLEWLGRIIPIPGIADNAQKFQGRVTITADKSTSTAYMELSSLRSEDTAVYYCARAPPRGYSGYDLLGNDAFDIWGQGTMVTVSS
VL: QSVLTQPPSVSGAPGQRVTISCTGSSSNIGAGYDVHWYQQLPGTAPKLLLYGNTNRPSGVPDRFTGSKSGTSASLAITGLQAEDEADYYCQSYDTSLSGSYVFGTGTKVAVL
B16: BD55-5251 (antibody, V domains shown)
VH: QITLKESGPALVKPTQTLTLTCTFSGFSLSSNGVGVGWIRQSPGKALEWLALIYWDDDKRYTPSLKKRLTVTKDTSKNQVVLTMTNMDPVDTATYYCAHMARPRGLFINPSWFDPWGQGTLVTVSS
VL: QSVLTQPPSASGTPGQRVTISCSGSSSNIGSNTIDWYQQLPGTAPRLLIYGHDLRPSGVPDRFSGSQSGTSASLVISGLQSEDEADYYCAAWDDSLNGPVFGGGTKLTVL
B17: BD55-5259 (antibody, V domains shown)
VH: QITLKESGPTLVKPTQTLTLTCTFSGFSLTMPEVGVAWVRQPPGKALEWLALIYGDDNKRYSPSLESRLTITKDSSKNQVVLTMTNLDSVDTATYYCARRKFLWDSDPVAFDYWGLGTLVIVSS
VL: DIVMTQTPLSLPVTLGQPASISCRSSQSLVHIDGNIYLSWLQQRPGQPPRLLIYKISNRFSGVPDRFSGSGSGTDFTLKISRVEAEDVGVYYCMQATQFPHEMYTFGQGTKLEIR
B18: BD55-5271 (antibody, V domains shown)
VH: QVTLKESGPVLVKPTETLTLTCTVSGISLNNARMAVSWIRQPPGKALEWLAHILSNDEKSFSKSLTSRLTISKDSSKNQVVLRLTNMDPVDTGTYYCARIVYDSSSYYYSGDNWFDPWGQGTQVTVSS
VL: SYELTQPPSVSVSPGQTARITCTGDAFPNQYAYWYQQKSGQAPVLVIYKDSERPSGIPERFSGSSAGTTVTLTISGVQAEDEADYYCQSADSRGVVFGGGTKVTVL
B19: BD55-5265 (antibody, V domains shown)
VH: EVQLVQSGAEVKKPGESLKISCKGAGYIFTHYWIAWVRQMPGKGLEWMGIVHPGDSDTRYSPSFQAQVTISADKSINTAYLQWSSLKASDTAIYFCARHGVHSGYSGYDRWDGHYYGMDVWGQGTTVTVSA
VL: SYVLTQPPSVSVAPGKTARITCGGNNIGSKSVHWYQQKPGQAPVLVVYDGSERPSGIPERFSGSNSENTATLTISRVEAGDEADYYCQVWNDNSDSLVFGTGTEVTVL
B20: BD55-5248 (antibody, V domains shown)
VH: QVQLVESGGGVVQPGRSLRLSCAASGFTFSSYDMYWVRQAPGKGLEWVAVISYDGSSNFYADSVKGRFTISRDNSRNTLSLQMNSLRAEDTAVYFCARERREQLTPVFDHWGQGTLVTVSS
VL: DIQMTQSPSSLSASVGDRVTITCRASQSISSYLNWYQQRPGKAPKLLIYSASTLESGVPSRFSGSGSGTDFTLTINSLQPEDFATYYCQQSYSTLALTFGGGTKVEIK
B21: BD55-5267 (antibody, V domains shown)
VH: QVQLQESGPGLVKPSGTLSLTCAVSGGSISSSNWWSWVRQPPGKGLEWIGEIYHSGSTNYNPSLKSRVTISVDKSKNKFSLKLSSVTAADTAVYFCARAGWIESGYDAFVGYFDYWGQGTLVTVSS
VL: DIQMTQSPSSLSASVGDRVTITCRASQGISSSLAWYQQKPGKAPDLLLYAASGLESGVPSRFSGSGSGTDFTLSISSLQPEDFATYYCQQYYSPPRTFGQGTKLEIK
B22: BD55-5264 (antibody, V domains shown)
VH: QVQLVQSGAEVKKPGASVKVSCKVSGYTLTKFSIHWVRQGHGKGLEWMGGFDIGEGGTIYAQKFQGRVTMTEDTSTDTSYMELSSLRSEDTAMYYCATDGEYSSGWAGVKLWGQGTLVTVSS
VL: DIQMTQSPSTLSASVGDRVTITCRASQSISSWLAWYQQKPGKAPKLLIYKASSLESGVPSRFSGSGSGTEFTLTISSLQPDDFATYYCQQCDSYPWTFGQGTKVEIK

The experiment has as its target SARS-CoV-2 (WT) Spike RBD Protein (His Tag) (SARS-CoV-2 ancestral (Wuhan-Hu-1), UniProt P0DTC2).
In the case of B1, the binding result is given as “binds”. B2: the binding result is “binds”. In the case of B3 it was “binds”; in that of B4, “binds”; in that of B5, “binds”.

As to B6, the binding result is on record as “binds”. Consider B7, for which the binding result was “binds”.

Turning to B8, the binding result was “binds”. For the molecule B9, the binding result is recorded as “binds”. To B10 belongs “binds”; to B11, “binds”; to B12, “binds”. To B13 belongs “binds”. In the case of B14 it was “binds”; in that of B15, “binds”. On to B16, for which the binding result is listed as “binds”.

B17: the binding result is listed as “binds”. As for B18, the binding result is listed as “binds”. For the molecule B19, the binding result was “binds”. To B20 belongs “binds”; to B21, “binds”. In the case of B22 it was “binds”.

These data come from PMC9712074 (Cell Reports, 2022).
